Experiment [1] deals with SycO (Yersinia enterocolitica type three secretion chaperone SycO) (Yersinia enterocolitica WA-314). Put plainly: SEC; analytical gel filtration, SMART system, Superdex 75 PC 3.2/30 in PBS; 50 μg SycO mixed with 50 μg carbonic anhydrase (29 kDa marker); fractions analysed by SDS-PAGE; column calibrated with marker proteins.
The target is the same in experiment [2]. Put plainly: cross-linking; 1.3 mM DSP, 3 μg/μl recombinant SycO in PBS, 30 min at 22°C; Coomassie-stained SDS-PAGE.

“SycO (Yersinia enterocolitica type three secretion chaperone SycO) (natural protein)”: the stoichiometry N in experiment [1] and in experiment [2] was 2 each time.

The record behind these values is article PMC1933539.
